In patent US20110293620A1:

Key:
[1] = target: recombinant PR1/HLA-A*0201 monomer (human); test: SPR, Biacore; antibody captured on anti-mouse antibody surface, peptide/HLA-A2 as analyte
[2] = target: recombinant PR1/HLA-A*0201 monomer (human); test: SPR (BIAcore 3000), BB7.2 captured on an anti-mouse antibody surface, PR1/HLA-A2 monomer (HLA-A2/beta2m/peptide) as analyte in a concentration series, 25 C, first-order kinetic fit; the box below the panel and the text round it to 162 nM

Kd [1]: 162 nM
Kd [2]: 162 nM
Substance: BB7.2 murine monoclonal antibody (HLA-A*0201 allele-specific mouse IgG2a)
